From patent publication US20030198640A1 (Human Genome Sciences, published 2003) come the findings set out here.

To fix the notation:
T1: TR6-Fc (full-length human TNFR-6 alpha, SEQ ID NO:6 aa 1-300, fused to the Fc domain of human IgG1) (human, UniProt O95407 30-300)
T1 construct: also called TNFR-6 alpha Fc fusion protein; DcR3-Fc; not shown: Fc domain of human IgG1
T1 sequence: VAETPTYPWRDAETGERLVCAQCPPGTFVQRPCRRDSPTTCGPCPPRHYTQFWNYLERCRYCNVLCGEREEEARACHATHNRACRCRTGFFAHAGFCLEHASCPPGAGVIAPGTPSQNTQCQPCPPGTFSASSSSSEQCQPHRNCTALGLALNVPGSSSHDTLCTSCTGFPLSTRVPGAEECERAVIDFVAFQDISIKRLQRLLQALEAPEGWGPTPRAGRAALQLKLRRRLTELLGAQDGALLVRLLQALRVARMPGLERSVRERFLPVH

T2: DR6 (Fc-fusion form of the extracellular domain) (UniProt O75509 42-349, limits assumed)
T2 construct: extracellular domain; not shown: Fc part
T2 sequence (looked up): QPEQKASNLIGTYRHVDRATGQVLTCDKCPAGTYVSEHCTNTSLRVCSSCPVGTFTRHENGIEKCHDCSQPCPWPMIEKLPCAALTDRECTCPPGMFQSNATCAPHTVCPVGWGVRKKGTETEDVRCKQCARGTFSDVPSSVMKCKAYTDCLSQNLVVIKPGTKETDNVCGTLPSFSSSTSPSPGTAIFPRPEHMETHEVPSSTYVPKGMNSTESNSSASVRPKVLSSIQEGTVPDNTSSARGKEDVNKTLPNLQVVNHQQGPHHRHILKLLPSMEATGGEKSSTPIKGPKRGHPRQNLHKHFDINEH

T3: TNF-gamma-β polypeptide (amino acid residues 72-251 of SEQ ID NO:2), untagged recombinant protein (human, UniProt O95150 72-251)
T3 construct: also called TL1β
T3 sequence: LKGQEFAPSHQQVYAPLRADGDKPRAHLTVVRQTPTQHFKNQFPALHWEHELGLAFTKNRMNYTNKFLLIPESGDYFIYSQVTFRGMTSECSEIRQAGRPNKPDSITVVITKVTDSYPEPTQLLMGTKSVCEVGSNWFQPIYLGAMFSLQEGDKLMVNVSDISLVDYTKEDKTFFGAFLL

T4: FLAG-tagged soluble form of TNF-gamma-beta (aa 72-251) (human, UniProt O95150 72-251)
T4 construct: also called FLAG-TL1β; FLAG-TNF-gamma-beta; not shown: FLAG tag of the pFLAG-CMV-1 vector at the amino terminus
T4 sequence: T3 sequence

B1: full length TNF-gamma-beta expressed on the cell surface (HEK293F stable transfectants; cells transfected with TNF-gamma-β) (ligand)
chain: MAEDLGLSFGETASVEMLPEHGSCRPKARSSSARWALTCCLVLLPFLAGLTTYLLVSQLRAQGEACVQFQALKGQEFAPSHQQVYAPLRADGDKPRAHLTVVRQTPTQHFKNQFPALHWEHELGLAFTKNRMNYTNKFLLIPESGDYFIYSQVTFRGMTSECSEIRQAGRPNKPDSITVVITKVTDSYPEPTQLLMGTKSVCEVGSNWFQPIYLGAMFSLQEGDKLMVNVSDISLVDYTKEDKTFFGAFLL
notes: also called TNF-gamma-beta expressing cells
B2: DR3-Fc (extracellular domain of human DR3, aa 1-199, fused at its C-terminus to the Fc domain of human IgG1) (Fc fusion)
chain: QGGTRSPRCDCAGDFHKKIGLFCCRGCPAGHYLKAPCTEPCGNSTCLVCPQDTFLAWENHHNSECARCQACDEQASQVALENCSAVADTRCGCKPGWFVECQVSQCVSSSPFYCQPCLDCGALHRHTRLLCSRRDTDCGTCLPGFYEHGDGCVSCPTSTLGSCPERCAAVCGWRQ
notes: not shown: Fc domain of human IgG1
B3: BCMA-Fc (Fc fusion, human, UniProt Q02223 1-54, looked up)
chain: MLQMAGQCSQNEYFDSLLHACIPCQLRCSSNTPPLTCQRYCNASVTNSVKGTNA
notes: not shown: Fc part
B4: TACI-Fc (extracellular domain of human TACI, aa 1-159, fused to the Fc domain of human IgG1) (Fc fusion, UniProt O14836 1-159, looked up)
chain: MSGLGRSRRGGRSRVDQEERFPQGLWTGVAMRSCPEEQYWDPLLGTCMSCKTICNHQSQRTCAAFCRSLSCRKEQGKFYDHLLRDCISCASICGQHPKQCAYFCENKLRSPVNLPPELRRQRSGEVENNSDNSGRYQGLEHRGSEASPALPGLKLSADQ
notes: range 1-159; also called TAC1 (Fc-fusion); not shown: Fc domain of human IgG1

Test [1] addresses T1, TR6-Fc (full-length human TNFR-6 alpha, …). In words: FACS on transfected cells.
The target of test [2] is T2, DR6 (Fc-fusion form of the …). Put plainly: flow cytometry on HEK293F cells expressing full length TNF-gamma-beta. As for the experimental part:
(§1) These cells were used to screen the Fc-fusion form of the extracellular domain of TNFR family members, including TNFR1, Fas, HveA, DR3, DR4, DR5, DR6, DcR1, DcR2, TR6, OPG, RANK, AITR, TAC1, CD40, and OX40. […] TR6 has been previously described as a decoy receptor (Pitti et al., Nature 396:699-703 (1998); Yu et al., J. Biol. Chem. 274:13733-6 (1999)) capable of competing with Fas and HveA for binding of FasL and LIGHT, respectively.
(§2) One million cells, in 0.1 ml of FACS buffer (PBS, 0.1% BSA, 0.1% NaN₃), were incubated with 0.1-1 microgram of protein or antibody at RT for 15 min. The cells were washed with 3 ml of FACS buffer, reacted with biotinylated primary antibody, and stained with PE-conjugated secondary antibody at RT for 15 min. Cells were then washed again, resuspended in 0.5 microgram/ml of propidium iodide, and live cells were gated and analyzed on a FACScan using the CellQuest software (BD Biosciences).

Test [3] addresses T3, TNF-gamma-β polypeptide (amino acid …). In words: BIAcore, DR3-Fc immobilised, three batches of TNF-gamma-beta; DR3-Fc. As for the experimental part:
(§3) TNFR-Fc were covalently immobilized to the BIAcore sensor chip (CM5 chip) via amine groups using N-ethyl-N′-(dimethylaminopropyl) carbodiimide/N-hydroxysuccinimide chemistry. […] The amount of bound protein was determined during washing of the flow cell with HBS buffer (10 mM HEPES, pH 7.4, 150 mM NaCl, 3.4 mM EDTA, 0.005% Surfactant P20). The flow cell surface was regenerated by displacing bound protein by washing with 20 microliters of 10 mM glycine-HCl, pH 2.3. For kinetic analysis, the on and off rates were determined using the kinetic evaluation program in BIAevaluation 3 software using a 1:1 binding model and the global analysis method.
On the technique in general: SPR reads the build-up and loss of mass on a sensor chip optically.

Test [4] has the same target. Put plainly: BIAcore, DR3-Fc immobilised, average of three batches; DR3-Fc, average of three batches. As for the experimental part: as §3
For test [5] the target is unchanged. In words: BIAcore, control receptor surface. As for the experimental part:
as §3

Test [6] deals with T4, FLAG-tagged soluble form of …. In words: co-immunoprecipitation with protein A-Sepharose, anti-Flag blot. The source says: The beads were then precipitated and washed extensively with PBST buffer (PBS, 0.5% Triton X-100) before boiled in SDS-sample buffer. Proteins were resolved on 4-20% Tris-Glycine gels (NOVEX), transferred to nitrocellulose membranes, and blotted with anti-Flag M2 monoclonal antibody (1 microgram/ml, Sigma) and horseradish peroxidase (HRP)-conjugated goat anti-mouse IgG antibody (0.5 microgram/ml).

For test [7], the target named is B1. In words: flow cytometry on HEK293F cells expressing full length TNF-gamma-beta. As for the experimental part:
as §1, §2
(In flow cytometry, cells or beads pass a laser one at a time.)

With B1, the binding result is listed as “binds” in test [1] and “no binding” in test [2].
B2: in test [3], the koff (as a rule, the first-order rate constant of dissociation) amounted to 0.00413 s⁻¹ and the on-rate constant (kon) (commonly the second-order rate constant of association) is 639000 M⁻¹ s⁻¹. Further, in test [4], the Kd (usually the free concentration of one partner at which half of the binding sites on the other are occupied at equilibrium, for simple one-to-one binding) was 6.45 nM.
Turning to B3, in test [5], the binding result was “no binding (tested: 370 nM (top of the range 3-370 nM))”.
B4: the binding result in test [6] and in test [7] was “no binding” each time.
